Measured values reported in article PMC12724345.

Legend:
[1] = target: Arabidopsis SCE1 fused to CLuc (split-luciferase assay) (UniProt Q42551); assay: split-luciferase complementation assay in planta; conditions: Rep^sim NLuc + CLuc SCE1; n = 12; parent: est. 0.36; read off a plot
[2] = target: Arabidopsis SUMO1^ΔGG fused to CLuc (split-luciferase assay) (UniProt P55852); assay: split-luciferase complementation assay in planta; conditions: Rep^sim NLuc + CLuc SUMO1^ΔGG; n = 12; parent: est. 0.29; read off a plot
Chain of UniProt P55852 (P55852 1-91, stated change not applied): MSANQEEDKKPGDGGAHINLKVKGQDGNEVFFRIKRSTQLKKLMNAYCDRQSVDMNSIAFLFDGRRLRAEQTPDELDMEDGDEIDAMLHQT

Chain of UniProt Q42551 (Q42551 whole entry, the tested form may be a part): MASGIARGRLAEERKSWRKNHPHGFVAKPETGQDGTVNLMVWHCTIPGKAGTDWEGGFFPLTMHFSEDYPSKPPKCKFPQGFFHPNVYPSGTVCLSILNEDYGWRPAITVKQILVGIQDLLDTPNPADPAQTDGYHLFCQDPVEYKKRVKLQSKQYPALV

Substance: Rep of TYLCV fused to NLuc (split-luciferase assay) I215A; V216A; I217A
- response (fraction of total signal) [1]: 0.075
- response (fraction of total signal) [2]: 0.08
